Data: US20250277059A1, “ANTIBODY USED TO TREAT CORONAVIRUS INFECTION” (priority 2022, published 2025)
Numbering of substitutions follows the chain as printed. Numbers in names are those of the source.

B1: humanized 752-1 IgG4 (S108P) prototype #1 (antibody, V domains shown)
VH: QVQLVQSGAEVKKPGASVKVSCKASGYTFTSCGISWVRQAPGQGLEWMGEIYPRGGNTYYNEKFKGRVTMTTDTSTSTAYMELRSLRSDDTAVYYCARENGNYDPLFAYWGQGTLVTVSS
VL: DIQMTQSPSSLSASVGDRVTITCKASQDINKYIAWYQQKPGKAPKLLIYYTSTLQPGVPSRFSGSGSGTDFTFTISSLQPEDIATYYCLQYYNLWTFGGGTKVEIK
notes: also called humanized #1; hu #1
B2: humanized 752-1 IgG4 (S108P) prototype #2: humanized 752 antibody, 752_hVH-1 (SEQ ID NO: 124) and 752_hVL-2 (SEQ ID NO: 119), human IgG4 (S108P) (antibody, V domains shown)
VH: B1 VH
VL: B1 VL with Y49H
modifications: human IgG4 S108P constant region
B3: humanized 752-1 IgG4 (S108P) prototype #1: humanized 752 antibody, 752_hVH-1 (SEQ ID NO: 124) and 752_hVL-1 (SEQ ID NO: 114), human IgG4 (S108P) (antibody, V domains shown)
VH: B1 VH
VL: B1 VL
modifications: human IgG4 S108P constant region
B4: humanized 752-1 IgG4 (S108P) prototype #2 (antibody, V domains shown)
VH: B1 VH
VL: B1 VL with Y49H
notes: also called humanized #2; hu #2
B5: humanized 2228-15 IgG4 (S108P) prototype #1 (antibody, V domains shown)
VH: QVQLVQSGAEVKKPGASVKVSCKASGYTFTDYYINWVRQAPGQGLEWMGWIFPGSGSSYYNAIFKGRVTMTRDTSISTAYMELSRLRSDDTAVYYCARGDFGNFGGFFTYWGQGTLVTVSS
VL: DVVMTQSPLSLPVTLGQPASISCRASKSVSTSGYSFMHWFQQRPGQSPRRLIYLASNLESGVPDRFSGSGSGTDFTLKISRVEAEDVGVYYCQHSRELPLTFGGGTKVEIK
notes: as for B1
B6: humanized 2228-15 IgG4 (S108P) prototype #2: humanized 2228 antibody, 2228_hVH-1 (SEQ ID NO: 144) and 2228_hVL-2 (SEQ ID NO: 139), human IgG4 (S108P) (antibody, V domains shown)
VH: B5 VH
VL: DIVMTQSPDSLAVSLGERATINCRASKSVSTSGYSFMHWYQQKPGQPPKLLIYLASNLESGVPDRFSGSGSGTDFTLTIRPLQAEDVAVYYCQHSRELPLTFGQGTKLEIK
modifications: human IgG4 S108P constant region
B7: humanized 2228-15 IgG4 (S108P) prototype #2 (antibody, V domains shown)
VH: B5 VH
VL: B6 VL
notes: also called hu #2
B8: humanized 2228-15 IgG4 (S108P) prototype #1: humanized 2228 antibody, 2228_hVH-1 (SEQ ID NO: 144) and 2228_hVL-1 (SEQ ID NO: 134), human IgG4 (S108P) (antibody, V domains shown)
VH: B5 VH
VL: B5 VL
modifications: human IgG4 S108P constant region
B9: humanized 2228-15 IgG4 (S108P) prototype #3: humanized 2228 antibody, 2228_hVH-2 (SEQ ID NO: 149) and 2228_hVL-1 (SEQ ID NO: 134), human IgG4 (S108P) (antibody, V domains shown)
VH: EIQLVQSGAEVKKPGSSVKVSCKASGYTFTDYYINWMRQAPGQGLEWIGWIFPGSGSSYYNAIFKGRATLTVDTSTNTAYMELSSLRSEDTAFYFCARGDFGNFGGFFTYWGQGTLVTVSS
VL: B5 VL
modifications: human IgG4 S108P constant region
B10: 752_1 human IgG4 chimeric antibody (antibody, V domains shown)
VH: QVQLQQSGAELARPGASVKLSCKASGYTFTSCGISWVKQRTGQGLEWIGEIYPRGGNTYYNEKFKGKATLTADKSSSTAYMELRSLTSEDSAVYFCARENGNYDPLFAYWGQGTLVTVSA
VL: DIQMTQSPSSLSASLGGKVTITCKASQDINKYIAWYQHKPGKGPRLLIHYTSTLQPGIPSRFSGSGSGRDYSFSIYNLEPEDIATYYCLQYYNLWTFGGGTKLEIK
B11: humanized 752-1 IgG4 (S108P) prototype #3: humanized 752 antibody, 752_hVH-2 (SEQ ID NO: 129) and 752_hVL-1 (SEQ ID NO: 114), human IgG4 (S108P) (antibody, V domains shown)
VH: B10 VH with A9T, E10G, K38T, T41A, T78S, S85G, S88A, L115T, V116L, A120S
VL: B1 VL
modifications: human IgG4 S108P constant region
B12: humanized 752-1 IgG4 (S108P) prototype #4: humanized 752 antibody, 752_hVH-2 (SEQ ID NO: 129) and 752_hVL-2 (SEQ ID NO: 119), human IgG4 (S108P) (antibody, V domains shown)
VH: B10 VH with A9T, E10G, K38T, T41A, T78S, S85G, S88A, L115T, V116L, A120S
VL: B1 VL with Y49H
B13: humanized 752-1 IgG4 (S108P) prototype #3 (antibody, V domains shown)
VH: B10 VH with A9T, E10G, K38T, T41A, T78S, S85G, S88A, L115T, V116L, A120S
VL: B1 VL
notes: also called humanized #3; hu #3
B14: humanized 752-1 IgG4 (S108P) prototype #4 (antibody, V domains shown)
VH: B10 VH with A9T, E10G, K38T, T41A, T78S, S85G, S88A, L115T, V116L, A120S
VL: B1 VL with Y49H
notes: also called humanized #4; hu #4
B15: 2228_15 human IgG4 chimeric antibody (antibody, V domains shown)
VH: QVQLQQSGPELVKPGTSVKISCKASGYTFTDYYINWVKQRPGQGLEWIGWIFPGSGSSYYNAIFKGKATLTVDTSSNTAHMSLSSLTSDDSAVYFCARGDFGNFGGFFTYWGQGTLVTVSA
VL: DVVVTQSPASLAVSLGQRATISCRASKSVSTSGYSFMHWYQQKPGQPPKLLIYLASNLESGVPARFSGSGSGTDFILNIHPVEEEDAATYYCQHSRELPLTFGAGTKLELK
B16: recombinant 2228-15 mIgG (antibody, V domains shown)
VH: B15 VH
VL: B15 VL
B17: humanized 2228-15 IgG4 (S108P) prototype #4: humanized 2228 antibody, 2228_hVH-2 (SEQ ID NO: 149) and 2228_hVL-2 (SEQ ID NO: 139), human IgG4 (S108P) (antibody, V domains shown)
VH: B9 VH
VL: B6 VL
modifications: human IgG4 S108P constant region

Legend:
[1] = target: T1, Human TMPRSS2 recombinant protein, extracellular region (N-terminal His tag, C-terminal Strep-tag II) (human, UniProt O15393 106-492); assay: SPR (BIACore)
T1 construct: also called Human TMPRSS2 recombinant proteins; extracellular region of human TMPRSS2
T1 sequence (O15393 other isoform, or with tags, fused parts or gaps limits assumed): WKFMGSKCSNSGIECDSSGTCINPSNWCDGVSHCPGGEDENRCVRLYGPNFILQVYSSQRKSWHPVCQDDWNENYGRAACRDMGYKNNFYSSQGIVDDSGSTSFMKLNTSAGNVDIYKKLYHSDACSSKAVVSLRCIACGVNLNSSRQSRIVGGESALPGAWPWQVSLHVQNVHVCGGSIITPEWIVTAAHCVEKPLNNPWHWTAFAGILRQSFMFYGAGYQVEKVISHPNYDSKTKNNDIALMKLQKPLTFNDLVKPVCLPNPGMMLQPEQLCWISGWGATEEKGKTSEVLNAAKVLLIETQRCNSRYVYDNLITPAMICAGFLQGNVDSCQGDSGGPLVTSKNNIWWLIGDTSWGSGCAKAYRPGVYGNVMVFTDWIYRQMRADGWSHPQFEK

[2] = target: T2, Human TMPRSS2 expressed on cells (human, UniProt O15393 1-492)
T2 construct: also called TMPRSS2 expressing cells; Daudi-TMPRSS2 transfectant
T2 sequence (O15393 whole entry): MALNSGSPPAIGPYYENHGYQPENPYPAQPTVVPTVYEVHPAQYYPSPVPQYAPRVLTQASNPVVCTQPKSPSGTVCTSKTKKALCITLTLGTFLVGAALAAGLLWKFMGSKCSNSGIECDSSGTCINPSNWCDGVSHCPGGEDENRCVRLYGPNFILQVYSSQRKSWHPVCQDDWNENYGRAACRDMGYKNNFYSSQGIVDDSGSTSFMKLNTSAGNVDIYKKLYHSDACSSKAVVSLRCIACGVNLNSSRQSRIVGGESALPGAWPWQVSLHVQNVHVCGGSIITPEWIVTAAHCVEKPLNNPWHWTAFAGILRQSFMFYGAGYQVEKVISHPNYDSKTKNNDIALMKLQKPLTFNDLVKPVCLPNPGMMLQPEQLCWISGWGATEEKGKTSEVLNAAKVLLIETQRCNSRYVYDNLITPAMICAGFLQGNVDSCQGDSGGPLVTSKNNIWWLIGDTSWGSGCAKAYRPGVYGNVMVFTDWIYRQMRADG

human TMPRSS2 = human TMPRSS2 (Homo sapiens, UniProt O15393); assay: BIACore binding assay of anti-TMPRSS2 antibodies; details: Table 8, recombinant and humanized antibodies
human TMPRSS2, sequence (O15393 106-492 limits assumed): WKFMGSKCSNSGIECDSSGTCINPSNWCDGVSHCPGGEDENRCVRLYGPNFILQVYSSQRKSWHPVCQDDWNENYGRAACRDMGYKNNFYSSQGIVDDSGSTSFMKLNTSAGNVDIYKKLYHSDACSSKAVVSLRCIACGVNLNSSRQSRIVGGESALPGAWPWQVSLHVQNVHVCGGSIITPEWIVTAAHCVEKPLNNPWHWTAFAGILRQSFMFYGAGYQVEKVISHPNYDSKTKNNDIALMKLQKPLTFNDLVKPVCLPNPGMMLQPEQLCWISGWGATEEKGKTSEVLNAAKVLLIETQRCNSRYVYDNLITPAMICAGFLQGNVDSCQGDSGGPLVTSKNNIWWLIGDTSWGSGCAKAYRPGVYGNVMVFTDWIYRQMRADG

Molecule	Kd [1]	koff [1]	kon [1]	APC median at 3 µg/ml [2]	ka (human TMPRSS2)	kd (human TMPRSS2)
B1	22.6 nM	0.00932 s⁻¹	412000 M⁻¹ s⁻¹	1450		
B2					1.13e+06 M⁻¹ s⁻¹	0.01521 s⁻¹
B3					412000 M⁻¹ s⁻¹	0.009321 s⁻¹
B4	13.4 nM	0.0152 s⁻¹	1.13e+06 M⁻¹ s⁻¹	1410		
B5	12.3 nM	0.0641 s⁻¹	5.22e+06 M⁻¹ s⁻¹	579		
B6					731000 M⁻¹ s⁻¹	0.001039 s⁻¹
B7				2540		
B8					5.22e+06 M⁻¹ s⁻¹	0.0641 s⁻¹
B9					825000 M⁻¹ s⁻¹	0.000774 s⁻¹
B10				2040		
B11					2.22e+06 M⁻¹ s⁻¹	0.004691 s⁻¹
B12					2.5e+06 M⁻¹ s⁻¹	0.006114 s⁻¹
B13	2.11 nM	0.00469 s⁻¹	2.22e+06 M⁻¹ s⁻¹	1560		
B14	2.44 nM	0.00611 s⁻¹	2.5e+06 M⁻¹ s⁻¹	1650		
B15				2370		
B16	3.72 nM					
B17					1.44e+06 M⁻¹ s⁻¹	0.0001 s⁻¹
